Source: patent US20230235058A1 (OXFORD UNIVERSITY INNOVATION, published 2023)

T1: human FcγR2B (human, UniProt P31994 43-217)
T1 construct: extracellular domain; also called hFcγR2B; CD32B
T1 sequence (looked up): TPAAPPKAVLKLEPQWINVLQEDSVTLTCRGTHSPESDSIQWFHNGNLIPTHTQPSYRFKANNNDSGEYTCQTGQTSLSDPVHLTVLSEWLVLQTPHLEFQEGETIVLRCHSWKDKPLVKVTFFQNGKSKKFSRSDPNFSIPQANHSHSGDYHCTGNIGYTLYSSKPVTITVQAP

T2: human FcγR2A 131R (human, UniProt P12318 34-217)
T2 construct: extracellular domain
T2 sequence (looked up): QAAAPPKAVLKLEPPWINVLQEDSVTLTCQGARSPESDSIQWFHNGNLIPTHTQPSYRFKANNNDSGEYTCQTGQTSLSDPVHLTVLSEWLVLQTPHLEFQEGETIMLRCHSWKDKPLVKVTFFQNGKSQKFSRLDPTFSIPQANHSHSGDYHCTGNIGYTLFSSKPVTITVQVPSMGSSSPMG

T3: human FcγR2A 131H (human, UniProt P12318 34-217)
T3 construct: extracellular domain
T3 sequence (looked up): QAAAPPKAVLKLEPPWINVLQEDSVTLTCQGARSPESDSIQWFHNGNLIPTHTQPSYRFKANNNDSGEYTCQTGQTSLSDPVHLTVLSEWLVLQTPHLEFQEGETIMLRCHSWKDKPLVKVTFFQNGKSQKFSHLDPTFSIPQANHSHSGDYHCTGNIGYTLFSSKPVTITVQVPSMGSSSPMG


Experiments:
[1] = target: T4, human FcγR1A (human, UniProt P12314 16-288, biotinylated); test: SPR 37C, kinetic
T4 construct: bought; also called CD64A
Method: (§1) For the high affinity FcR interactions (FcγR1A, and also FcRn assessed at pH6.0) the binding was assessed in a kinetic analysis with antibody as analyte. […] Reference flow cell 1 was left empty in all channels. Purified antibody was then injected at a single concentration and on/off rates calculated by curve fitting on BiaEvaluation software.

[2] = target: T5, human FcRn (human, UniProt P55899 24-297; P61769 21-119, limits assumed, biotinylated); test: SPR, pH6.0
T5 construct: bought; also called FcRn pH6

[3] = target: T1, human FcγR2B; test: SPR 37C, steady state; hIgG1 D265A G236D A330R Fc variant;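 for result: fc variants captured on chip-bound human BTLA ectodomain, recombinant FcγR ectodomains injected as analyte at varied concentrations, double-referenced equilibrium binding fitted to Langmuir model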
Method: (§2) For the low affinity FcγRs (FcγR2A, FcγR2B, FcγR3A and FcγR3B) the interactions were assessed by surface plasmon resonance with the recombinantly expressed FcRs (extracellular domains only) as analyte. […] The 2.8.6 Fc variant to be assessed was then captured (approx. 500-1000 response units) in flow cell 2 of each channel. Steady state affinity analysis was then performed by injecting varying concentrations of FcR in multiple cycles and measuring equilibrium binding. Double referencing was used (subtracting the signal in the reference Fc1 and also subtracting the signal from a blank zero concentration injection). KDs were calculated from the Langmuir curves (plotting equilibrium binding against analyte concentration to determine the concentration required for half maximal binding).

[4] = target: T6, human FcγR3A 158F (human, UniProt P08637 17-208); test: SPR 37C, steady state;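 note: fc variants captured on chip-bound human BTLA ectodomain, recombinant FcγR ectodomains injected as analyte at varied concentrations, double-referenced equilibrium binding fitted to Langmuir model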
T6 construct: extracellular domain
Method: (§3) For the low affinity FcγRs (FcγR2A, FcγR2B, FcγR3A and FcγR3B) the interactions were assessed by surface plasmon resonance with the recombinantly expressed FcRs (extracellular domains only) as analyte. Briefly, recombinant human BTLA extracellular domain (BTLA^K31-R151) was covalently immobilised to both flow cells of all channels of a CMS Series S sensor chip using the GE Healthcare Amine coupling kit. The 2.8.6 Fc variant to be assessed was then captured (approx. 500-1000 response units) in flow cell 2 of each channel. Steady state affinity analysis was then performed by injecting varying concentrations of FcR in multiple cycles and measuring equilibrium binding. Double referencing was used (subtracting the signal in the reference Fc1 and also subtracting the signal from a blank zero concentration injection). KDs were calculated from the Langmuir curves (plotting equilibrium binding against analyte concentration to determine the concentration required for half maximal binding).

[5] = target: T2, human FcγR2A 131R; test: SPR 37C, steady state;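 note: fc variants captured on chip-bound human BTLA ectodomain, recombinant FcγR ectodomains injected as analyte at varied concentrations, double-referenced equilibrium binding fitted to Langmuir model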
Method: as §3

[6] = target: T7, human FcγR3B (human, UniProt O75015 17-200, limits assumed); test: SPR 37C, steady state;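 note: fc variants captured on chip-bound human BTLA ectodomain, recombinant FcγR ectodomains injected as analyte at varied concentrations, double-referenced equilibrium binding fitted to Langmuir model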
T7 construct: extracellular domain; also called CD16B
Method: as §3

[7] = target: T8, human FcγR3A 158V (human, UniProt P08637 17-208); test: SPR 37C, steady state
T8 construct: extracellular domain
Method: as §3

[8] = target: T3, human FcγR2A 131H; test: SPR 37C, steady state
Method: as §3

[9] = target: T2, human FcγR2A 131R; test: SPR 37C, steady state; hIgG1 D265A P238D Fc variant
Method: as §3

[10] = target: T3, human FcγR2A 131H; test: as above
Method: as §3

[11] = target: T1, human FcγR2B; test: as above
Method: as §3

[12] = target: T6, human FcγR3A 158F; test: SPR 37C, steady state; hIgG1 K322A Fc variant
Method: as §3

[13] = target: T7, human FcγR3B; test: SPR 37C, steady state; hIgG1 K322A Fc variant
Method: as §3

[14] = target: T8, human FcγR3A 158V; test: SPR 37C, steady state; hIgG1 K322A Fc variant
Method: as §3

[15] = target: T3, human FcγR2A 131H; test: SPR 37C, steady state; hIgG1 K322A Fc variant
Method: as §3

[16] = target: T1, human FcγR2B; test: SPR 37C, steady state; hIgG1 K322A Fc variant
Method: as §3

[17] = target: T4, human FcγR1A; test: SPR 37C, kinetic; hIgG1 K322A Fc variant
Method: as §1

[18] = target: T8, human FcγR3A 158V; test: SPR 37C, steady state; hIgG1 D265A G236D S267E Fc variant
Method: as §2

[19] = target: T1, human FcγR2B; test: SPR 37C, steady state
Method: as §3

[20] = target: T2, human FcγR2A 131R; test: SPR 37C, steady state; hIgG1 N297A Fc variant
Method: as §3

[21] = target: T3, human FcγR2A 131H; test: SPR 37C, steady state; hIgG1 N297A Fc variant
Method: as §3

[22] = target: T1, human FcγR2B; test: SPR 37C, steady state; hIgG1 N297A Fc variant
Method: as §3

[23] = target: T4, human FcγR1A; test: SPR 37C, kinetic; hIgG1 N297A Fc variant
Method: For the high affinity FcR interactions (FcγR1A, and also FcRn assessed at pH6.0) the binding was assessed in a kinetic analysis with antibody as analyte. […] Reference flow cell 1 was left empty in all channels. Purified antibody was then injected at a single concentration and on/off rates calculated by curve fitting on BiaEvaluation software. […] IgG Fc has two binding sites for FcRn so this assessment performed with FcRn immobilised at high density provides an avidity estimate for the interaction rather than a true KD.

T7 sequence (O75015 17-200 limits assumed): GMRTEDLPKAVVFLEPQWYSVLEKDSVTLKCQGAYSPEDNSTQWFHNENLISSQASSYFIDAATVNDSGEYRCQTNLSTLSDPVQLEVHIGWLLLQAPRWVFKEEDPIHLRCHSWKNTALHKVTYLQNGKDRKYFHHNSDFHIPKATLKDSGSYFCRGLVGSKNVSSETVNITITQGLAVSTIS
T4 sequence (P12314 16-288): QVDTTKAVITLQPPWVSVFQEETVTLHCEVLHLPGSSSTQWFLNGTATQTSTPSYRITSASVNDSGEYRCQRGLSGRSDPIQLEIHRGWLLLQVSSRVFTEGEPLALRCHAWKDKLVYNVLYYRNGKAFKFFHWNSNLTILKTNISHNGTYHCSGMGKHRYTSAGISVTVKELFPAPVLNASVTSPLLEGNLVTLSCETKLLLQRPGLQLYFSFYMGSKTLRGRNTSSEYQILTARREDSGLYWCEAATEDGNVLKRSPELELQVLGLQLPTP
T6 sequence (P08637 17-208): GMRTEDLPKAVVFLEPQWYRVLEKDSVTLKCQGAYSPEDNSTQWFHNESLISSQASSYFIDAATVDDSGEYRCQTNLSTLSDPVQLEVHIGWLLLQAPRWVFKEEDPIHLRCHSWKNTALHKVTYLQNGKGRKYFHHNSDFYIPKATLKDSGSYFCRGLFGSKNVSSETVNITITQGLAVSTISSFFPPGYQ
T8 sequence (P08637 17-208 F176V): as the sequence (P08637 17-208) above, with F160V counted along it

Binder | binding result [1] | avidity (FcRn pH6) [2] [nM] | binding result [4] | Kd [5] [µM] | binding result [6] | binding result [7] | also measured
humanised 2.8.6 hIgG1 D265A P238D (antibody, Fc variant with the variable domains of humanised 2.8.6; copies: 2 + 2) heavy: not shown light: EIVLTQSPATLSLSPGERATLSCRASSSVSYMHWYQQKPGQAPRPLIYATSNRATGIPARFSGSGSGTDYTLTISSLEPEDFAVYYCHQWSSNPYTFGQGTKLEIKRTVAAPSVFIFPPSDEQLKSGTASVVCLLNNFYPREAKVQWKVDNALQSGNSQESVTEQDSKDSTYSLSSTLTLSKADYEKHKVYACEVTHQGLSSPVTKSFNRGEC | – | – | no binding | – | no binding | no binding | Kd [9]: 348 µM; Kd [10]: 4590 µM; Kd [11]: 684 µM
humanised 2.8.6 hIgG1 K322A (antibody, Fc variant with the variable domains of humanised 2.8.6; copies: 2 + 2) heavy: not shown light: EIVLTQSPATLSLSPGERATLSCRASSSVSYMHWYQQKPGQAPRPLIYATSNRATGIPARFSGSGSGTDYTLTISSLEPEDFAVYYCHQWSSNPYTFGQGTKLEIKRTVAAPSVFIFPPSDEQLKSGTASVVCLLNNFYPREAKVQWKVDNALQSGNSQESVTEQDSKDSTYSLSSTLTLSKADYEKHKVYACEVTHQGLSSPVTKSFNRGEC | – | – | – | – | – | – | Kd [12]: 5.75 µM; Kd [13]: 11.9 µM; Kd [14]: 2.18 µM; Kd [15]: 4.6 µM; Kd [16]: 11 µM; Kd [17]: 0.0052 µM

More lines, main results first:

binding result [1] | avidity (FcRn pH6) [2] [nM] | binding result [4] | Kd [5] [µM] | binding result [6] | binding result [7] | Binder | also measured
no binding | 14 | no binding | 91.8 | no binding | no binding | humanised 2.8.6 hIgG1 D265A G236D A330R (antibody, Fc variant with the variable domains of humanised 2.8.6; copies: 2 + 2) heavy: QVTLKESGPALVKPTQTLTLTCTVSGFSLTTYGVHWIRQPPGKALEWLGVMWPGGRTSYNPSLKSRLTITKDNSKSQVVLTMTNMDPVDTATYYCVRGDYEYDYYAMDYWGQGTLVTVSSASTKGPSVFPLAPSSKSTSGGTAALGCLVKDYFPEPVTVSWNSGALTSGVHTFPAVLQSSGLYSLSSVVTVPSSSLGTQTYICNVNHKPSNTKVDKKVEPKSCDKTHTCPPCPAPELLDGPSVFLFPPKPKDTLMISRTPEVTCVVVAVSHEDPEVKFNWYVDGVEVHNAKTKPREEQYNSTYRVVSVLTVLHQDWLNGKEYKCKVSNKALPRPIEKTISKAKGQPREPQVYTLPPSREEMTKNQVSLTCLVKGFYPSDIAVEWESNGQPENNYKTTPPVLDSDGSFFLYSKLTVDKSRWQQGNVFSCSVMHEALHNHYTQKSLSLSPGK light: EIVLTQSPATLSLSPGERATLSCRASSSVSYMHWYQQKPGQAPRPLIYATSNRATGIPARFSGSGSGTDYTLTISSLEPEDFAVYYCHQWSSNPYTFGQGTKLEIKRTVAAPSVFIFPPSDEQLKSGTASVVCLLNNFYPREAKVQWKVDNALQSGNSQESVTEQDSKDSTYSLSSTLTLSKADYEKHKVYACEVTHQGLSSPVTKSFNRGEC | Kd [3]: 398 µM; Kd [8]: 91.3 µM
no binding | 18.7 | no binding | 61.8 | no binding | – | humanised 2.8.6 hIgG1 D265A G236D S267E (antibody, Fc variant with the variable domains of humanised 2.8.6; copies: 2 + 2) heavy: QVTLKESGPALVKPTQTLTLTCTVSGFSLTTYGVHWIRQPPGKALEWLGVMWPGGRTSYNPSLKSRLTITKDNSKSQVVLTMTNMDPVDTATYYCVRGDYEYDYYAMDYWGQGTLVTVSSASTKGPSVFPLAPSSKSTSGGTAALGCLVKDYFPEPVTVSWNSGALTSGVHTFPAVLQSSGLYSLSSVVTVPSSSLGTQTYICNVNHKPSNTKVDKKVEPKSCDKTHTCPPCPAPELLDGPSVFLFPPKPKDTLMISRTPEVTCVVVAVEHEDPEVKFNWYVDGVEVHNAKTKPREEQYNSTYRVVSVLTVLHQDWLNGKEYKCKVSNKALPAPIEKTISKAKGQPREPQVYTLPPSREEMTKNQVSLTCLVKGFYPSDIAVEWESNGQPENNYKTTPPVLDSDGSFFLYSKLTVDKSRWQQGNVFSCSVMHEALHNHYTQKSLSLSPGK light: EIVLTQSPATLSLSPGERATLSCRASSSVSYMHWYQQKPGQAPRPLIYATSNRATGIPARFSGSGSGTDYTLTISSLEPEDFAVYYCHQWSSNPYTFGQGTKLEIKRTVAAPSVFIFPPSDEQLKSGTASVVCLLNNFYPREAKVQWKVDNALQSGNSQESVTEQDSKDSTYSLSSTLTLSKADYEKHKVYACEVTHQGLSSPVTKSFNRGEC | Kd [18]: 1650 µM; binding result [8]: no binding; Kd [19]: 113 µM
– | 9.41 | no binding | – | no binding | no binding | humanised 2.8.6 hIgG1 N297A (antibody, Fc variant with the variable domains of humanised 2.8.6; copies: 2 + 2) heavy: not shown light: EIVLTQSPATLSLSPGERATLSCRASSSVSYMHWYQQKPGQAPRPLIYATSNRATGIPARFSGSGSGTDYTLTISSLEPEDFAVYYCHQWSSNPYTFGQGTKLEIKRTVAAPSVFIFPPSDEQLKSGTASVVCLLNNFYPREAKVQWKVDNALQSGNSQESVTEQDSKDSTYSLSSTLTLSKADYEKHKVYACEVTHQGLSSPVTKSFNRGEC | Kd [20]: 447 µM; Kd [21]: 2150 µM; Kd [22]: 1080 µM; Kd [23]: 8.7 µM
